# Experimental data taken from paper PMC10404701.
# Target: TTLL7-treated microtubules (mouse brain tubulin) (mouse (endogenous in brain)) (UniProt P68369)
# Assay: TIRF microscopy, single-molecule imaging (kymographs, dwell time); MTs immobilised on a cover glass by a tubulin antibody; Kif5c-GFP in imaging buffer (BRB80, 1 mM ATP, 20 μM taxol); 35 °C; dwell times from kymographs, events shorter than 0.2 s left out, single exponential fit
# Chain of UniProt P68369 (P68369 whole entry, chain 1 of 2): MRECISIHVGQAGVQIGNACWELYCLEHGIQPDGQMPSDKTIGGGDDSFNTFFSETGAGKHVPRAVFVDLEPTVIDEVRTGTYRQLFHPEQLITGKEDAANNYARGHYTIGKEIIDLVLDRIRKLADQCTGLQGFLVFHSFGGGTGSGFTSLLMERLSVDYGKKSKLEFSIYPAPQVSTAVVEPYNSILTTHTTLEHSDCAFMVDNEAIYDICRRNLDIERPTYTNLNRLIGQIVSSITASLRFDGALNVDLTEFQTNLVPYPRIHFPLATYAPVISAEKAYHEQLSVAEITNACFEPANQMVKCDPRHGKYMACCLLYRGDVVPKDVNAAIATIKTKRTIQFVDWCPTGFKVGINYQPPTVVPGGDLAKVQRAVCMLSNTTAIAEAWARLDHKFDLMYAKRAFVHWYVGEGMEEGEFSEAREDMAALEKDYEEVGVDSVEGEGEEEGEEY
# Chain of UniProt P68369 (Q7TMM9 whole entry, chain 2 of 2, further chain): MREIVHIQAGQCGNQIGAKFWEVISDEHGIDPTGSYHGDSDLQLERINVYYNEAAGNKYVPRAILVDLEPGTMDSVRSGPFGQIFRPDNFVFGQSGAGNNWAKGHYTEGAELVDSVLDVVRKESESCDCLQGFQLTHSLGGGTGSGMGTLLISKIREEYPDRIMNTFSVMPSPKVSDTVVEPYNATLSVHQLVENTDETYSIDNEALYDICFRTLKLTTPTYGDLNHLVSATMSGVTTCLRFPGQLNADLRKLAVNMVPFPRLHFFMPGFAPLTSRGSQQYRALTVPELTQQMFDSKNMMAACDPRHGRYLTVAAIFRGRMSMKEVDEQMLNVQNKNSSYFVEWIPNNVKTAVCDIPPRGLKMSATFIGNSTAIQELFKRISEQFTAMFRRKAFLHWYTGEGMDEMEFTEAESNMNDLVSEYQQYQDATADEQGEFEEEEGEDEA
substance,measurement,value
Kif5c-GFP (amino acids: 1–430) (from UniProt P56536 1-430) (domain or fragment),dwell time,0.5 s
